Results from patent US20170081400A1 (CEPHALON, published 2017).
Positions count from the first letter of the chain named.

T1: human TL1A extracellular domain with N-terminal HIS and FLAG tag (human, UniProt O95150 72-251)
T1 construct: whole entry named. ~70 kDa fraction purified by gel filtration
T1 sequence: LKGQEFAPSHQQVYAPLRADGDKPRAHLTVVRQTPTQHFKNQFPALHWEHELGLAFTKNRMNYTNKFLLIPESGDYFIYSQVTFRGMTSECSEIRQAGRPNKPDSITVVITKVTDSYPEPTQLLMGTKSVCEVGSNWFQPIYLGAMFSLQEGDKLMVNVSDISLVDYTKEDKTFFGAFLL

T2: human TL1A extracellular domain with N-terminal HIS and FLAG tag (human) (UniProt O95150)
T2 sequence: T1 sequence

B1: 320-198 (antibody, human IgG1, name in Kabat numbering, V domains shown)
VH: QVQLVQSGAEVKKPGASVKVSCKASGYTFTSYDINWVRQAPGQGLEWMGWLNPNSGNTGYAQKFQGRVTMTADRSTSTAYMELSSLRSEDTAVYYCAREVPETAAFEYWGQGTLVTVSS
VL: QSVLTQPPSVSGAPGQRVTISCLSSSSDIGAGLGVHWYQQLPGTAPKLLIEGYYNRPSGVPDRFSGSKSGTSASLTITGLLPEDEGDYYCQSYDGTLSALFGGGTKLTVLG
notes: human IgG1, lambda
B2: 320-238 (antibody, human IgG1, name in Kabat numbering, V domains shown)
VH: B1 VH
VL: B1 VL with L23T, D28L
notes: human IgG1, lambda
B3: 320-234 (antibody, human IgG1, name in Kabat numbering, V domains shown)
VH: B1 VH
VL: B1 VL with L23T, D28S
notes: human IgG1, lambda
B4: 320-248 (antibody, human IgG1, name in Kabat numbering, V domains shown)
VH: B1 VH
VL: B1 VL with L23T, I29W
notes: human IgG1, lambda
B5: 320-240 (antibody, human IgG1, name in Kabat numbering, V domains shown)
VH: B1 VH
VL: B1 VL with L23T, D28Y
notes: human IgG1, lambda
B6: 320-223 (antibody, human IgG1, name in Kabat numbering, V domains shown)
VH: B1 VH
VL: B1 VL with L23T, S26W
notes: human IgG1, lambda
B7: 320-216 (antibody, human IgG1, name in Kabat numbering, V domains shown)
VH: B1 VH
VL: B1 VL with L23T, S25Y
notes: human IgG1, lambda
B8: 320-209 (antibody, human IgG1, name in Kabat numbering, V domains shown)
VH: B1 VH
VL: B1 VL with L23T, S25A
notes: human IgG1, lambda
B9: 320-242 (antibody, human IgG1, name in Kabat numbering, V domains shown)
VH: B1 VH
VL: B1 VL with L23T, I29S
notes: human IgG1, lambda
B10: 320-231 (antibody, human IgG1, name in Kabat numbering, V domains shown)
VH: B1 VH
VL: B1 VL with L23T, S27W
notes: human IgG1, lambda
B11: 320-232 (antibody, human IgG1, name in Kabat numbering, V domains shown)
VH: B1 VH
VL: B1 VL with L23T, S27Y
notes: human IgG1, lambda
B12: 320-230 (antibody, human IgG1, name in Kabat numbering, V domains shown)
VH: B1 VH
VL: B1 VL with L23T, S27L
notes: human IgG1, lambda
B13: 320-227 (antibody, human IgG1, name in Kabat numbering, V domains shown)
VH: B1 VH
VL: B1 VL with L23T, S27D
notes: human IgG1, lambda
B14: 320-246 (antibody, human IgG1, name in Kabat numbering, V domains shown)
VH: B1 VH
VL: B1 VL with L23T, I29K
notes: human IgG1, lambda
B15: 320-250 (antibody, human IgG1, name in Kabat numbering, V domains shown)
VH: B1 VH
VL: B1 VL with L23T, G30A
notes: human IgG1, lambda
B16: 320-249 (antibody, human IgG1, name in Kabat numbering, V domains shown)
VH: B1 VH
VL: B1 VL with L23T, I29Y
notes: human IgG1, lambda
B17: 320-222 (antibody, human IgG1, name in Kabat numbering, V domains shown)
VH: B1 VH
VL: B1 VL with L23T, S26L
notes: human IgG1, lambda
B18: 320-225 (antibody, human IgG1, name in Kabat numbering, V domains shown)
VH: B1 VH
VL: B1 VL with L23T, S27A
notes: human IgG1, lambda
B19: 320-219 (antibody, human IgG1, name in Kabat numbering, V domains shown)
VH: B1 VH
VL: B1 VL with L23T, S26D
notes: human IgG1, lambda
B20: 320-251 (antibody, human IgG1, name in Kabat numbering, V domains shown)
VH: B1 VH
VL: B1 VL with L23T, G30S
notes: human IgG1, lambda
B21: 320-220 (antibody, human IgG1, name in Kabat numbering, V domains shown)
VH: B1 VH
VL: B1 VL with L23T, S26H
notes: human IgG1, lambda
B22: 320-214 (antibody, human IgG1, name in Kabat numbering, V domains shown)
VH: B1 VH
VL: B1 VL with L23T, S25L
notes: human IgG1, lambda
B23: 320-202 (antibody, human IgG1, name in Kabat numbering, V domains shown)
VH: B1 VH
VL: B1 VL with L23T, S24Q
notes: human IgG1, lambda
B24: 320-247 (antibody, human IgG1, name in Kabat numbering, V domains shown)
VH: B1 VH
VL: B1 VL with L23T, I29L
notes: human IgG1, lambda
B25: 320-243 (antibody, human IgG1, name in Kabat numbering, V domains shown)
VH: B1 VH
VL: B1 VL with L23T, I29Q
notes: human IgG1, lambda
B26: 320-239 (antibody, human IgG1, name in Kabat numbering, V domains shown)
VH: B1 VH
VL: B1 VL with L23T, D28W
notes: human IgG1, lambda
B27: 320-224 (antibody, human IgG1, name in Kabat numbering, V domains shown)
VH: B1 VH
VL: B1 VL with L23T, S26Y
notes: human IgG1, lambda
B28: 320-217 (antibody, human IgG1, name in Kabat numbering, V domains shown)
VH: B1 VH
VL: B1 VL with L23T, S26A
notes: human IgG1, lambda
B29: 320-215 (antibody, human IgG1, name in Kabat numbering, V domains shown)
VH: B1 VH
VL: B1 VL with L23T, S25W
notes: human IgG1, lambda
B30: 320-228 (antibody, human IgG1, name in Kabat numbering, V domains shown)
VH: B1 VH
VL: B1 VL with L23T, S27H
notes: human IgG1, lambda
B31: 320-207 (antibody, human IgG1, name in Kabat numbering, V domains shown)
VH: B1 VH
VL: B1 VL with L23T, S24W
notes: human IgG1, lambda
B32: 320-235 (antibody, human IgG1, name in Kabat numbering, V domains shown)
VH: B1 VH
VL: B1 VL with L23T, D28Q
notes: human IgG1, lambda

Target: T1, human TL1A extracellular domain with …
Test: SPR run 2; supernatant on Protein A; TL1A 10 ug/mL; timepoint 44
Excerpt: (§1) 1.5. Antibody expression and antigen binding as determined by SPR. Using a CM5 sensor chip (GE Healthcare) Protein A (Pierce) was coupled to the chip surface using an amine coupling kit (GE Healthcare). Protein A was coupled on flow cell 1 and 2 (or alternatively 3 and 4) using a BIACORE® T200. […] The amount of supernatant or purified protein (as well as the concentration) injected during the capture stage varied between runs and is specified in the header of the Tables 3-11. At the end of injection of the supernatant or purified antibody the change in response units was measured. This value was reported as Capture Level in Tables 3-11. […] The response units were measured prior to the end of the dissociation phase. […] The sensorgrams were double referenced (flow cell 2 is subtracted from flow cell 1 and a buffer blank). As there were a large number of antibody variants to screen, these were screened across different runs (Tables 3-11). […] A summary of the conditions used in each run is below:
(§2) 2.1. […] In some experiment the antibodies were purified using Protein A chromatography (See 1.4) and purified antibodies were used in BIACORE® (GE Healthcare) experiments.

TL1A Binding Level (Early) | Binder
262 RU | B1
221 RU | B2
262 RU | B3
96 RU | B4
230 RU | B5
143 RU | B6
171 RU | B7
222 RU | B8
124 RU | B9
271 RU | B10
261 RU | B11
245 RU | B12
242 RU | B13
32 RU | B14
180 RU | B15
77 RU | B16

TL1A Binding Level (Early) | Binder
156 RU | B17
267 RU | B18
243 RU | B19
134 RU | B20
253 RU | B21
221 RU | B22
234 RU | B23
205 RU | B24
71 RU | B25
212 RU | B26
198 RU | B27
258 RU | B28
220 RU | B29
259 RU | B30
268 RU | B31
256 RU | B32

Target: T1, human TL1A extracellular domain with …
Test: SPR run 2; supernatant on Protein A; TL1A 10 ug/mL; timepoint 220
Excerpt: as §1, §2

TL1A Binding Level (Late) | Binder
241 RU | B1
191 RU | B2
239 RU | B3
30 RU | B4
196 RU | B5
66 RU | B6
147 RU | B7
200 RU | B8
49 RU | B9
243 RU | B10
235 RU | B11
223 RU | B12
218 RU | B13
23 RU | B14
115 RU | B15
28 RU | B16

TL1A Binding Level (Late) | Binder
96 RU | B17
243 RU | B18
220 RU | B19
50 RU | B20
230 RU | B21
196 RU | B22
214 RU | B23
162 RU | B24
26 RU | B25
163 RU | B26
153 RU | B27
235 RU | B28
199 RU | B29
235 RU | B30
243 RU | B31
236 RU | B32

Target: T2, human TL1A extracellular domain with N-terminal HIS and FLAG tag (human)
Test: cell-based or functional assay

Antibody IC50, TL1A induced caspase potency assay in TF-1 cells | Fold improvement over 320-179, TL1A induced caspase potency assay in TF-1 cells | Binder
0.01 µg/mL | 1 fold | B1
0.04 µg/mL | 1 fold | B8
0.02 µg/mL | 2 fold | B19
0.01 µg/mL | 1 fold | B23
0.007 µg/mL | 3 fold | B31
